For four molecules, EC50 results are on record in EP4682164A1 (Curogen Technology Co., Ltd., dated 2026).

B1: T1-T4-11 (Fc fusion)
chain: LRLLDHRAPVCSQPGLNCTVKNSDCLDDSWIHPRNLTPSSPKDLQIQLHFAHTQQGDLVPVAHIEWTLQTDASILYLEGAELSVLQLDTNERLCVRFEFLSKLRHHHRRWRFTFSHFVVDPGQEYEVTVHHLPKPIPDGDPNHQSKNFLVPDCEHPRMKVTTPCMSSALPWLNVSADGDNVHLVLNVSEEQHFGLSLYWNQVQGPPKPRWHKNLTGPQIITLNHTDLVPCLCIQVWPLEPDSVRTNICPFREDPRAHQNLWQAARLRLLTLQSWLLDAPCSLPAEAALCWRAPGGDPCQPLVPPLSWENVTVDKVLEFPLLKGHPNLCVQVNSSEKLQLQECLWADSLGPLKDDVLLLETRGPQDNRSLCALEPSGCTSLPSKASTRAARLGEYLLQDLQSGQCLQLWDDDLGALWACPMDKYIHKTGIEGRMDRNTGRGGEEKKKEKEKEEQEERETKTPECPSHTQPLGVFLFPPKPKDTLMISRTPEVTCVVVDVSQEDPEVQFNWYVDGVEVHNAKTKPREEQFNSTYRVVSVLTVLHQDWLNGKEYKCKVSNKGLPSSIEKTISKAKGQPREPQVYTLPPSQEEMTKNQVSLTCLVKGFYPSDIAVEWESNGQPENNYKTTPPVLDSDGSFFLYSRLTVDKSRWQEGNVFSCSVMHEALHNHYTQKSLSLSLGKGGGGSGGGGSGGGGSLELPAQVAFTPYAPEPGSTCRLREYYDQTAQMCCAKCPPGQHAKVFCTKTSDTVCDSCEDSTYTQLWNWVPECLSCGSRCSSDQVETQACTREQNRICTCRPGWYCALSKQEGCRLCAPLSKCRPGFGVARPGTETSDVVCKPCAPGTFSNTTSSTDICRPHQICSVVAIPGNASMDAVCTSTSPTRSMAPGAVHLPQPVSTRSQHTQPTPEPSTAPSTSFLLPMGPSPPAEGSTGD
notes: also called T1c-Fc-T4d; IL-17RA/RC-Fc-TNFR2
B2: T1-T4-08 (Fc fusion)
chain: LRLLDHRAPVCSQPGLNCTVKNSDCLDDSWIHPRNLTPSSPKDLQIQLHFAHTQQGDLVPVAHIEWTLQTDASILYLEGAELSVLQLDTNERLCVRFEFLSKLRHHHRRWRFTFSHFVVDPGQEYEVTVHHLPKPIPDGDPNHQSKNFLVPDCEHPRMKVTTPCMSSALPWLNVSADGDNVHLVLNVSEEQHFGLSLYWNQVQGPPKPRWHKNLTGPQIITLNHTDLVPCLCIQVWPLEPDSVRTNICPFREDPRAHQNLWQAARLRLLTLQSWLLDAPCSLPAEAALCWRAPGGDPCQPLVPPLSWENVTVDKVLEFPLLKGHPNLCVQVNSSEKLQLQECLWADSLGPLKDDVLLLETRGPQDNRSLCALEPSGCTSLPSKASTRAARLGEYLLQDLQSGQCLQLWDDDLGALWACPMDKYIHKTGIEGRMDRNTGRGGEEKKKEKEKEEQEERETKTPECPSHTQPLGVFLFPPKPKDTLMISRTPEVTCVVVDVSQEDPEVQFNWYVDGVEVHNAKTKPREEQFNSTYRVVSVLTVLHQDWLNGKEYKCKVSNKGLPSSIEKTISKAKGQPREPQVYTLPPSQEEMTKNQVSLTCLVKGFYPSDIAVEWESNGQPENNYKTTPPVLDSDGSFFLYSRLTVDKSRWQEGNVFSCSVMHEALHNHYTQKSLSLSLGKGGGGSGGGGSGGGGSLELPAQVAFTPYAPEPGSTCRLREYYDQTAQMCCAKCSPGQHAKVFCTKTSDTVCDSCEDSTYTQLWNWVPECLSCGSRCSSDQVETQACTREQNRICTCRPGWYCALSKQEGCRLCAPLRKCRPGFGVARPGTETSDVVCKPCAPGTFSNTTSSTDICRPHQICNVVAIPGNASMDAVCTSTSPTRSMAPGAVHLPQPVSTRSQHTQPTPEPSTAPSTSFLLPMGPSPPAEGSTGD
notes: also called T1-T4-8; T1c-Fc-T4a
B3: T1-T4-10 (Fc fusion)
chain: LRLLDHRAPVCSQPGLNCTVKNSDCLDDSWIHPRNLTPSSPKDLQIQLHFAHTQQGDLVPVAHIEWTLQTDASILYLEGAELSVLQLDTNERLCVRFEFLSKLRHHHRRWRFTFSHFVVDPGQEYEVTVHHLPKPIPDGDPNHQSKNFLVPDCEHPRMKVTTPCMSSALPWLNVSADGDNVHLVLNVSEEQHFGLSLYWNQVQGPPKPRWHKNLTGPQIITLNHTDLVPCLCIQVWPLEPDSVRTNICPFREDPRAHQNLWQAARLRLLTLQSWLLDAPCSLPAEAALCWRAPGGDPCQPLVPPLSWENVTVDKVLEFPLLKGHPNLCVQVNSSEKLQLQECLWADSLGPLKDDVLLLETRGPQDNRSLCALEPSGCTSLPSKASTRAARLGEYLLQDLQSGQCLQLWDDDLGALWACPMDKYIHKTGIEGRMDRNTGRGGEEKKKEKEKEEQEERETKTPECPSHTQPLGVFLFPPKPKDTLMISRTPEVTCVVVDVSQEDPEVQFNWYVDGVEVHNAKTKPREEQFNSTYRVVSVLTVLHQDWLNGKEYKCKVSNKGLPSSIEKTISKAKGQPREPQVYTLPPSQEEMTKNQVSLTCLVKGFYPSDIAVEWESNGQPENNYKTTPPVLDSDGSFFLYSRLTVDKSRWQEGNVFSCSVMHEALHNHYTQKSLSLSLGKGGGGSGGGGSGGGGSLELPAQVAFTPYAPEPGSTCRLREYYDQTAQMCCAKCPPGQHAKVFCTKTSDTVCDSCEDSTYTQLWNWVPECLSCGSRCSSDQVETQACTREQNRICTCRPGWYCALSKQEGCRLCAPLSKCRPGFGVARPGTETSDVVCKPCAPGTFSNTTSSTDICRPHQICNVVAIPGNASMDAVCTSTSPTRSMAPGAVHLPQPVSTRSQHTQPTPEPSTAPSTSFLLPMGPSPPAEGSTGD
notes: also called T1c-Fc-T4c; IL-17RA/RC-Fc-TNFR2
B4: T1-T4-09 (Fc fusion)
chain: LRLLDHRAPVCSQPGLNCTVKNSDCLDDSWIHPRNLTPSSPKDLQIQLHFAHTQQGDLVPVAHIEWTLQTDASILYLEGAELSVLQLDTNERLCVRFEFLSKLRHHHRRWRFTFSHFVVDPGQEYEVTVHHLPKPIPDGDPNHQSKNFLVPDCEHPRMKVTTPCMSSALPWLNVSADGDNVHLVLNVSEEQHFGLSLYWNQVQGPPKPRWHKNLTGPQIITLNHTDLVPCLCIQVWPLEPDSVRTNICPFREDPRAHQNLWQAARLRLLTLQSWLLDAPCSLPAEAALCWRAPGGDPCQPLVPPLSWENVTVDKVLEFPLLKGHPNLCVQVNSSEKLQLQECLWADSLGPLKDDVLLLETRGPQDNRSLCALEPSGCTSLPSKASTRAARLGEYLLQDLQSGQCLQLWDDDLGALWACPMDKYIHKTGIEGRMDRNTGRGGEEKKKEKEKEEQEERETKTPECPSHTQPLGVFLFPPKPKDTLMISRTPEVTCVVVDVSQEDPEVQFNWYVDGVEVHNAKTKPREEQFNSTYRVVSVLTVLHQDWLNGKEYKCKVSNKGLPSSIEKTISKAKGQPREPQVYTLPPSQEEMTKNQVSLTCLVKGFYPSDIAVEWESNGQPENNYKTTPPVLDSDGSFFLYSRLTVDKSRWQEGNVFSCSVMHEALHNHYTQKSLSLSLGKGGGGSGGGGSGGGGSLELPAQVAFTPYAPEPGSTCRLREYYDQTAQMCCAKCPPGQHAKVFCTKTSDTVCDSCEDSTYTQLWNWVPECLSCGSRCSSDQVETQACTREQNRICTCRPGWYCALSKQEGCRLCAPLRKCRPGFGVARPGTETSDVVCKPCAPGTFSNTTSSTDICRPHQICNVVAIPGNASMDAVCTSTSPTRSMAPGAVHLPQPVSTRSQHTQPTPEPSTAPSTSFLLPMGPSPPAEGSTGD
notes: also called T1-T4-9; T1c-Fc-T4b

T1 sequence (Q16552 20-155 limits assumed): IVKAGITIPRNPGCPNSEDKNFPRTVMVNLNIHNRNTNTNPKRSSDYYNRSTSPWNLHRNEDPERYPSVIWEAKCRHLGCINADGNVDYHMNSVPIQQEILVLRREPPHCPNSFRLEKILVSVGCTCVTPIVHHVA

The assay addresses T1, human IL-17A (IL-17AA homodimer) (human, UniProt Q16552 20-155, limits assumed).
T1 construct: also called hIL-17A; hIL-17AA
In words: ELISA, cytokine coated on plate, binder titrated, HRP secondary antibody. In general terms: ELISA stands for enzyme-linked immunosorbent assay.
By EC50 is commonly meant the midpoint of the concentration-response curve. High values mean a less potent agent, low ones a more potent agent. The molecule B1 showed an EC50 of 0.0106 µg/mL. The result for B2 reads 0.0126 µg/mL; that for B3, 0.0106 µg/mL; that for B4, 0.0087 µg/mL.
